For two molecules, Kd results are on record in paper PMC4522956 (2015).

Test [1] has as its target T1, HIF-1β PASb labeled with FITC (human (cDNA library from the breast …, UniProt P27540 349-467, FITC (fluorescein isothiocyanate) label, sites not stated)). Kind of test: FP; at equilibrium.
Test [2] has as its target T1, HIF-1β PASb labeled with FITC. Nature of the test: FP; PASb-3α with bacterial lipids, at equilibrium.
Test [3] has the same target. Kind of test: FP; PASb-3α with linoleic acid, at equilibrium.

T1 sequence (P27540 349-467): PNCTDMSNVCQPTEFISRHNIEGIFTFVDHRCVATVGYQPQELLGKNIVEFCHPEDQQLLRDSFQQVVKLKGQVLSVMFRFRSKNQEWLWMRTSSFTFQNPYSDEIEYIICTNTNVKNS

B1: HIF-1α PASb (domain or fragment)
chain: not shown
A word on the Kd: it is a measure of binding affinity in units of concentration. Lower therefore signals a tighter complex. The molecule B1 displayed a Kd in test [1] of 36 µM.

B2: C-terminal Per-Arnt-Sim (PASb) domain of human HIF-3α9 (domain or fragment)
chain: GAFLSRHSLDMKFTYCDDRIAEVAGYSPDDLIGCSAYEYIHALDSDAVSKSIHTLLSKGQAVTGQYRFLARSGGYLWTQTQATVVSGGRGPQSESIVCVHFLISQVEET
Take B2: the Kd in test [2] was 12 µM; in test [3], 10 µM.
